Reference: patent publication US20100074906A1

B1: FLAGhis-tagged DDF-VZV2 human Fab expressed using pDLac-VZV2-FLAGhis (Fab)
heavy: LESGGGLVQPGGSLRLSCEASGFTFSSYTMNWVRQAPGKGLEWVSWISSSGSDIYYAESVKGRFTISRDNAKNSLYLQMNSLRDEDTALYYCARDGIDSSSSWGGEPYFYTMDFWGQGTTVIVSSASTKGPSVFPLAPSSKSTSGGTAALGCLVKDYFPEPVTVSWNSGALTSGVHTFPAVLQSSGLYSLSSVVTVPSSSLGTQTYICNVNHKPSNTKVDKKVEPKSCDKTSDYKDDDDKHHHHHH
light: not shown
B2: FLAGhis-tagged DDF-VZV1 human Fab expressed using pDLac-VZV1-FLAGhis (Fab)
heavy: LESGPGLVKPSETLSLTCSVSGGSITTKDFSWAWIRQPPGKGLEWIGSIYYSGTTHYSPSLKSRVIMSVDTSDNKFSLSLTSVTAADTAVYYCARQLGRSPGIYSFWRDHRTSAFDFWGQGTLATVSAASTKGPSVFPLAPSSKSTSGGTAALGCLVKDYFPEPVTVSWNSGALTSGVHTFPAVLQSSGLYSLSSVVTVPSSSLGTQTYICNVNHKPSNTKVDKKVEPKSCDKTSDYKDDDDKHHHHHH
light: ELTQSPSSLSASVGDRVTITCRATQSISSYLSWYQQKPGQAPKLLIYGASNLQSGVPSRFSGSGSGTDFTLTINSLQPEDFATYYCQQTLSTPFTFGPGTRVDFKRTVAAPSVFIFPPSDEQLKSGTASVVCLLNNFYPREAKVQWKVDNALQSGNSQESVTEQDSKDSTYSLSSTLTLSKADYEKHKVYACEVTHQGLSSPVTKSFNRGEC

Target: Varicella Zoster Virus (VZV) antigens (lysate of VZV-infected MRC-5 cells, VZV-infected MRC-5 cells, cell-free VZV; ELLEN strain) (Varicella Zoster Virus (ELLEN strain, ATCC VR-586))
Assay: cell-based or functional assay

Binder	VZV-neutralizing activity, IC50 (plaque reduction) [µg/mL]
B1	2
B2	2
